# Test results: the nanobody polyreactivity screen of Harvey et al. (2022)
# Experiment: yeast display, Sf9 membrane polyspecificity reagent, FACS + sequencing; frameworks hold sequencing errors
# How it was run: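 Galactose induction of a Saccharomyces cerevisiae BJ5465 synthetic nanobody display library ran 36–48 hours. The cells were then stained for 1 hour at 4 °C with 10% biotinylated, detergent-solubilized Sf9 membrane reagent, pulled down on streptavidin microbeads and FACS-sorted into low and high (top ~1%) gates on expression and reagent-binding fluorescence. Labels for polyreactivity follow the gate of origin.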
row,Sequence,polyreactivity (PSR sort gate)
1,QVQLVESGGGLVQAGGSLRLSCAASGSTFSYYVMGWYRQAPGKERELVAAISGSGGSTYYSDSVKGRFTISRDNAKNTVYLQMNSLKPEDTAVYYCAANDGSEYDYWGQGTQVTVSS,high polyreactivity
2,QVQLVESGGGLVQAGGSLRLSCAASGSTFTAYAMGWYRQAPGKERELVAAISKRSGGTYYADSVKGRFTISRDNAKNTVYLQMNSLKPEVTAVYYCGQGTQVTVSS,low polyreactivity
3,QVQLVESGGGLVQAGGSLRLSCAASGSTFTAYAMGWYRQAPGKERELVAAITSSGGGTYYADSVKGRFTISRDNAKNPVYLQMNSLKPEDTAVYYCAAVPGYGYYNYSDFDYWGQGTQVTVSS,low polyreactivity
4,QVQLVESGGGLVQAGGSLRLSCAASGSTFTDNAMGWYRQAPGKERELVAAITSGSSTNYADSVKGRFTISRDNAKNTVYLQMNSLKPEDTAVYYCATCQEPQYSTGDYWGQGTQVTVSS,low polyreactivity
5,QVQLVESGGGLVQAGGSLRLSCAASGSTFTDYAMGWYRQAPGKERELVAAITDSGGRTYYADSVKGRFTISRDNAKNTVYLQMNSLKPEDTAVYYCATEDDRWYYWGQGTQVTVSS,high polyreactivity
6,QVQLVESGGGLVQAGGSLRLSCAASGSTFTDYDMGWYRQAPGKERELVAAITSGGSTNYADSVKGRFTISRDNAKNTVYLQMNSLKPEDTAVYYCAAADADRKYDYWGQGTQVTVSS,low polyreactivity
7,QVQLVESGGGLVQAGGSLRLSCAASGSTFTFNAMGWSRQAPGKDRELVAAIRWSTGGTYYADSVKGRFTISRDNAKNTVYLQMNSLKPEDTAVYNCAAQFVPYFYFSKYDYWGQGTQVTVSS,low polyreactivity
8,QVQLVESGGGLVQAGGSLRLSCAASGSTFTGNAMAWYRQAPGKERELVAAISRSGGSTFYADYVKGRFTISRDNAKNTVYLQMNSLKPEDTAVYYCATRYVVDMDYWGQGTQVTVSS,high polyreactivity
9,QVQLVESGGGLVQAGGSLRLSCAASGSTFTGYAMGWSRQAPGKEREIVATITKRGGRTYYADSVKGRFTISRDNAKNTVYLQMNSLKPEDTAVYYCARDQGKLVVPYAYWGQGTQVTVSS,high polyreactivity
10,QVQLVESGGGLVQAGGSLRLSCAASGSTFTGYAMGWYRQAPGKERELVAAISRSGGSTSYADSVKGRFTISRDNAKNTVYLQMNSLKPEDTAVYYCAAQVQGTTRAKQRGGIGELDYWGQGTQLTVSS,low polyreactivity
11,QVQLVESGGGLVQAGGSLRLSCAASGSTFTGYAMGWYRQAPGKERELVAAISRSVGRTYYADSVKGRFTISRDNAKNTVYLQMNSLKPEDTAVYYCAADVYLTGSRNYYWGQGTQVTVSS,high polyreactivity
12,QVQLVESGGGLVQAGGSLRLSCAASGSTFTGYAMGWYRQAPGKERELVAAITRGGSTYYADSVKGRFTISRDNAKNTVYLQMNSLKPEDTAVYYCAAKPSSREPTGPRYYYWGQGTQVTVSS,high polyreactivity
13,QVQLVESGGGLVQAGGSLRLSCAASGSTFTGYTMGWYRQAPGKERELVAAITYRGGSTYYADSVKGRFTISRDNAKITDYLQMNSLIPEDTAVYYCAAVPEYYEYSPYDYWGQGTQVTVSS,low polyreactivity
14,QVQLVESGGGLVQAGGSLRLSCAASGSTFTGYTMGWYRQAPGKERELVAAITYRGGSTYYADSVKGRFTISRDNAKNTVYLQMNSLKPEDSAVYYCAAVAVYYEYSPYDYWGQGTQLTVSS,low polyreactivity
15,QVQLVESGGGLVQAGGSLRLSCAASGSTFTHYAMGWYRQAPGKERELVAAISWGGGTTRYADSVKGRFTISRDNAKNTVYLQMNSLKPEDTAVYYCAAYRTHGPPRAIRFDYWGQGTQVTVSS,high polyreactivity
16,QVQLVESGGGLVQAGGSLRLSCAASGSTFTIYAMGGYRQAPGKERELVAAITRGGSTNYADSVKGRFTISRDNAKNTVYLQMNSLKPEDTAVYYCNKVVPGYSAAKYDYWGQGTQVTVSS,high polyreactivity
17,QVQLVESGGGLVQAGGSLRLSCAASGSTFTIYAMGWYRQAPGKERELVAAITFSGDRTYYADSVKGRFTISRDNAKNTVFLQMNSLKPEDTAVYYCAAKSSTKQRKYYWGQGTQVTVSS,high polyreactivity
18,QVQLVESGGGLVQAGGSLRLSCAASGSTFTKNAMGWYRQAPGKERELVAAISFSGGSTYYADSVKGRFTISRDNAKNTVYLQMNSLKPEHTAVYYCAADPHRALPRFDYWGQGTQVTVSS,low polyreactivity
19,QVQLVESGGGLVQAGGSLRLSCAASGSTFTKNAMGWYRQAPGKERELVVVINRSGTSTYYADSVKGRFTISRDNAKNTVYLQMNSLKPEDTAVYYCATKYARTAGGGYYWGQGTQVTVSS,high polyreactivity
20,QVQLVESGGGLVQAGGSLRLSCAASGSTFTKYAMGWYRQAPGKERELVAAISRSGGGTYYADSVKGRFTISRDNAKNTVYLQMNILKPEDTAVYYCNAALFRGAQFDYWGQGTQVTVSS,high polyreactivity
21,QVQLVESGGGLVQAGGSLRLSCAASGSTFTLNAMGWYRQAPGKERELVAAITTSGGSTYYADSVKGRFTISRDNAKNTVYLQMNSLKPEDTAVYYCNADGPWREVERPFRKEGNYWGQGTQVTVSS,low polyreactivity
22,QVQLVESGGGLVQAGGSLRLSCAASGSTFTNNGMGWYRQAPGKERELVATISWDGDSTYYADSVKGRFTISRDNAKNTVYLQMNSLKPEDTAVYYCAADEWGSDSALNFEYWGQGTQVTVSS,low polyreactivity

row,Sequence,polyreactivity (PSR sort gate)
1,QVQLVESGGGLVQAGGSLRLSCAASGSTFTNYAMGWYRQAPGKERELLAAINNDRTNYADSVKGRFTISRDNAMNTVYLQMNSLKPEDTAVYYCAARLGGRRRFGYWGQGTQVTVSS,high polyreactivity
2,QVQLVESGGGLVQAGGSLRLSCAASGSTFTPNAMGWYRQAPGKERELVAAIRGLNGRTYYADSVKGRFTISRDNAKNTVYLQMHSLKPEDTAVYYCAAGGYSYYFAWHDYWGQGTQVTVSS,low polyreactivity
3,QVQLVESGGGLVQAGGSLRLSCAASGSTFTPYAMGWYRQAPAKERELVAAITSGGPTNYADSVKGRFTISRDNAKNTVYLQMNSLKPEDTAVYYCNAEYLYWWEIYDYWGQGNQVTVSS,high polyreactivity
4,QVQLVESGGGLVQAGGSLRLSCAASGSTFTPYAMGWYRQAPGKEREFVARISWTGGSTYYADSVKGRFTISRDIAKNTVYLQMNSLKPEDTAVYYCNADRYRWYDHGYYYWGQGTQVTVSS,high polyreactivity
5,QVQLVESGGGLVQAGGSLRLSCAASGSTFTPYVMGWYRQAPGKERELVAAIRRRGGSTYYADSVKGRFTISRDNAKNSVYLQMNSLKPEDTAVYYCATDWSWLSLKFDYWGQGTQVTVSS,high polyreactivity
6,QVQLVESGGGLVQAGGSLRLSCAASGSTFTQYVMGWYRQAPGKERDLVAAISDSGSTYYADSVKGRFTISRDNAKNTVYLQMNRLKPEDTAVYFCNADDVDFYYGYGYLDYDYWGQGTQVTVSS,low polyreactivity
7,QVQLVESGGGLVQAGGSLRLSCAASGSTFTRNAMGWYREAPGTERELVAAISFSGGSTYYADSVKGRFTISRDNAKNTVYLQMNSLKPEDTAVYYCATKVEYRYYYWGQGTQVTVSS,high polyreactivity
8,QVQLVESGGGLVQAGGSLRLSCAASGSTFTRNAMGWYRQAPGKERELVAAITSSGGSTYYADSVKGRFTISRDNAKITVYLQMNSLKPEDTAVYYCAAYPHRPRDRELDHWGQGTQVTVSS,low polyreactivity
9,QVQLVESGGGLVQAGGSLRLSCAASGSTFTRNAMGWYRQAPGKERELVAAITSSGGSTYYADSVKGRFTISRDNAKNTVYLQMNSLKPEDTAVYYCNADFRTYYDSEYDYWGQGTQVTVSS,low polyreactivity
10,QVQLVESGGGLVQAGGSLRLSCAASGSTFTRYAMGWNRQAPGKARELVAAINWSGTSTYYADSVKGRFTISRDNAMNTVYLQMNSLKPEATAVYYSNAYTVRSYRFDYWGQGTQVTVSS,high polyreactivity
11,QVQLVESGGGLVQAGGSLRLSCAASGSTFTRYAMGWYRQAPGKERELVAAISGGGSTNYADSVKGRFTISRDNANNTVYLQKNSLKPEVTAVYFCAARVRTTGYSQMYYWGQGTQVTVSS,low polyreactivity
12,QVQLVESGGGLVQAGGSLRLSCAASGSTFTRYAMGWYRQAPGKERELVAAISGGGSTNYADSVKGRFTISRDNSKNTVYLQMNSLKPEDTAVYYCAARVRTTGYSQMYYWGQGTQVTVSS,low polyreactivity
13,QVQLVESGGGLVQAGGSLRLSCAASGSTFTRYGMGRYRQAPGKERELVAAITTSGSSTYYADSVKGRFTISRDNAKNTVYLQMNSLKPEDTAVYYCAADWSSWGFDYWGQGTQVTVSS,low polyreactivity
14,QVQLVESGGGLVQAGGSLRLSCAASGSTFTSNTMGWCRQAPGKERELVAGITGAGSTNYADSVKGRFTISRDNEKNTVYLQMNSLKPEDTAVYYCAASVRWPRVSQRARYGYYYWGQGTQVAVSS,high polyreactivity
15,QVQLVESGGGLVQAGGSLRLSCAASGSTFTSYAMGWYRQAPGKERELVAGITSRGTSTYYADSVKGRFTISRDHAKNTVYLQMNSLKPEYTAVYYCAAVYLSYGPGSEDPLGYWGQGTQVTVSS,high polyreactivity
16,QVQLVESGGGLVQAGGSLRLSCAASGSTFTSYAMGWYRQAPGKERELVASIRSTSGRTYYADSVKGRFTISRDNAKNTVYLQMNSLKPEDTAVYYCAAATYGTWWTYADNPYDYWGQGTQVTVSS,high polyreactivity
17,QVQLVESGGGLVQAGGSLRLSCAASGSTFTTNAMGLYRQEPGKERELVAAITSTGSTYADSVKGRFTISRDNAMNTVYLQMNSLKPEDTAVYYCAADTQWTTPYDYWGQGTQVTVSS,low polyreactivity
18,QVQLVESGGGLVQAGGSLRLSCAASGSTFTTYAMRWYRQAPGKERELLAAITRGGGRTYYSDSVKGRFTISRDYAKNTVYLLMNSLKPEDTAVYYCNAGRSNSPCGRPYDYWGQGTQVTVSS,high polyreactivity
19,QVQLVESGGGLVQAGGSLRLSCAASGSTFTVNAMGWYRQAPGKERELVAAIRWSGDSTYYADSVKGRFTISRDNAKNTVYLQMNSLKPEDTAVYYCARDLYWGSYNYWGQGTQVTVSS,low polyreactivity
20,QVQLVESGGGLVQAGGSLRLSCAASGSTFTYNAMGWYRPAPGKERELVAAISYGGGRTYYADSVKGRFTISRDNAKNTVYLQMNSLKPEDTAVYYCAAGRSIGALYYGMDYWGQGTQVTVSS,high polyreactivity
21,QVQLVESGGGLVQAGGSLRLSCAASGSTFTYNAMGWYRQAPGKERELVAAIDRSVSTNYADSVKGRFTISRDNAKNTVYLQMNSLKPEDTAVYYCNARHPTDDIVIYDYWGQGTQVTVSS,low polyreactivity
